Reference: US7105156 (University of California, dated 2006)

Biological target: T1, p56^RB protein (amino-truncated 56 kDa RB protein, C-terminal half of the RB protein) (Homo sapiens (Human), UniProt P06400 379-928)
T1 sequence: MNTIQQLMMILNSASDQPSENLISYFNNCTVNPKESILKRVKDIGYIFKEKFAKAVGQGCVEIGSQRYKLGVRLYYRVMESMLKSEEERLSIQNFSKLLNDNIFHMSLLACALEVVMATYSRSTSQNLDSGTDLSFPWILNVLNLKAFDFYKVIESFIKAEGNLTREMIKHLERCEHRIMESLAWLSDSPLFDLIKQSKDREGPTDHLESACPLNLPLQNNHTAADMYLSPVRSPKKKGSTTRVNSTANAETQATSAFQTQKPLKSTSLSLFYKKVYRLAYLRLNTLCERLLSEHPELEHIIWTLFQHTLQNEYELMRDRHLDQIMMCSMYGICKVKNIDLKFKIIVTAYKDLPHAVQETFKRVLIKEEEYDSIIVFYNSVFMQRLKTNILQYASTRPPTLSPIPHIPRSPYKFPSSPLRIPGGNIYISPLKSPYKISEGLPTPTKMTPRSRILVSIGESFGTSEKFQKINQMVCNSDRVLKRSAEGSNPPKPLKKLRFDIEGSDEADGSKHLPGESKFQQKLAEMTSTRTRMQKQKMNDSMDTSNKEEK
Assay: cell-based or functional assay

ENLFCSEEMPSSDDEATA [T peptide (SV40 T-antigen peptide, amino acids 101-118)]
percent of injected cells incorporating BrdU (Saos-2 cells, 5 mM T peptide, 500 to 1000-fold molar excess over p56^RB): ~70%
